# B1: ERE duplex (dsDNA)
# DNA 1: CCCAGGTCACAGTGACCTGCG
# DNA 2: CGCAGGTCACTGTGACCTGGG
# Legend:
# Experiment in all cases: ITC
# DB_D190A = DB_D190A (human, UniProt P03372 176-250, D190A)
# DB_Y197A = DB_Y197A (human, UniProt P03372 176-250, Y197A)
# DB_K210A = DB_K210A (human, UniProt P03372 176-250, K210A)
# DB_S201A = DB_S201A (human, UniProt P03372 176-250, S201A)
# DB_AA = DB_AA (human, UniProt P03372 176-250, H196A;E203A)
# DB_R211A = DB_R211A (human, UniProt P03372 176-250, R211A)
# DB_K206A = DB_K206A (human, UniProt P03372 176-250, K206A)
# Sequence of DB_K206A (P03372 176-250 K206A): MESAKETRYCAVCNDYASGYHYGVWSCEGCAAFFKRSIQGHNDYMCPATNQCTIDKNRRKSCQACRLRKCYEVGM
# DB_E203A = DB_E203A (human, UniProt P03372 176-250, E203A)
# Sequence of DB_E203A (P03372 176-250 E203A): as the sequence (P03372 176-250 K206A) above, with E28A, A31K counted along it
# DB_S193A = DB_S193A (human, UniProt P03372 176-250, S193A)
# Sequence of DB_S193A (P03372 176-250 S193A): as the sequence (P03372 176-250 K206A) above, with S18A, A31K counted along it
# DB_H196A = DB_H196A (human, UniProt P03372 176-250, H196A)
# Sequence of DB_H196A (P03372 176-250 H196A): as the sequence (P03372 176-250 K206A) above, with H21A, A31K counted along it
# Sequence of DB_AA (P03372 176-250 H196A/E203A): as the sequence (P03372 176-250 K206A) above, with H21A, E28A, A31K counted along it
# Sequence of DB_K210A (P03372 176-250 K210A): as the sequence (P03372 176-250 K206A) above, with A31K, K35A counted along it
# Sequence of DB_Y197A (P03372 176-250 Y197A): as the sequence (P03372 176-250 K206A) above, with Y22A, A31K counted along it
# Sequence of DB_D190A (P03372 176-250 D190A): as the sequence (P03372 176-250 K206A) above, with D15A, A31K counted along it
# Sequence of DB_S201A (P03372 176-250 S201A): as the sequence (P03372 176-250 K206A) above, with S26A, A31K counted along it
# Sequence of DB_R211A (P03372 176-250 R211A): as the sequence (P03372 176-250 K206A) above, with A31K, R36A counted along it
binder,measurement,setting,value
B1,Kd,DB_D190A,67 ± 6 nM
same,Kd,DB_Y197A,316 ± 7 nM
same,Kd,DB_K210A,326 ± 11 nM
same,Kd,DB_S201A,119 ± 9 nM
same,Kd,DB_AA,387 ± 90 nM
same,Kd,DB_R211A,745 ± 76 nM
same,Kd,DB_K206A,313 ± 6 nM
same,Kd,DB_E203A,172 ± 48 nM
same,Kd,DB_S193A,102 ± 10 nM
same,Kd,DB_H196A,190 ± 24 nM
